Laboratory results: paper PMC10850359, “A mediator of OsbZIP46 deactivation and degradation negatively regulates seed dormancy in rice”

T1: His::ABI5 (Oryza sativa (rice), UniProt Q8RZ35 1-388)
T1 sequence: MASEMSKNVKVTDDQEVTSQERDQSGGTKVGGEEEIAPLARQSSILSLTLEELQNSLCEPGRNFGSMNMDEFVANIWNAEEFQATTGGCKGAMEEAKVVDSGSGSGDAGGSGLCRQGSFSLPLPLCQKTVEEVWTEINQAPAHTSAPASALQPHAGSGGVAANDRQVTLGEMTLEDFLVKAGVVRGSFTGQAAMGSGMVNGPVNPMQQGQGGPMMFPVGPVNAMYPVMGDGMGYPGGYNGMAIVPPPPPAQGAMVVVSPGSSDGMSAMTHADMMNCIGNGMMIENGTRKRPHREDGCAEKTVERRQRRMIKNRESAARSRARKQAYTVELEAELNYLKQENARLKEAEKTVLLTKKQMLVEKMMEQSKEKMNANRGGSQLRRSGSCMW

B1: EMSA-LEA3-bio (dsDNA)
DNA 1: GATGACTTGGCATGCTCACGTGGCATTTTTTTTGGTCTAA
DNA 2: TTAGACCAAAAAAAATGCCACGTGAGCATGCCAAGTCATC
B2: EMSA-EM1-bio (dsDNA)
DNA 1: CATAGCTTGCGCACGTACGTGTCGCGCTCCGGCGG
DNA 2: CCGCCGGAGCGCGACACGTACGTGCGCAAGCTATG

Target: T1, His::ABI5
Assay: EMSA; Beyotime Chemiluminescent EMSA Kit; 2 ug His::ABI5, 1 uL biotin probe (1 ng), 25 C, 20 min; unlabeled probe (1 ng) as competitor; buffer, salt and pH not stated
Details: protein: recombinant; tags: His (pET28a); chain copies: 2; label: biotin; blunt

Binder	binding result
B1	binds
B2	binds
